Data reported in paper PMC12947556.

Tests used:
[1] = target: ([H3K4me3K27me3]2) homotypic nucleosome; experiment: Captify Luminex bead-based binding assay; GST-PtSHL titrated to a multiplex panel of PTM-defined homotypic and heterotypic nucleosomes; median fluorescence intensity; EC50^rel
[2] = target: ([H3.2]·[H3.2K4me3K27me3]) heterotypic nucleosome (UniProt Q71DI3); experiment: as above

- fold preference over nucleosomes with each comprising PTM [1]: > 150 fold
- fold preference over ([H3.2K4me3]·[H3.2K27me3]) or its comprising PTMs [2]: > 350 fold
Substance: GST-PtSHL BAH-PHD (domain or fragment)
